Source: paper PMC12419008

How the values were obtained:
Assay in all cases: SPR
FcγRIIb (human) = FcγRIIb (human) (UniProt P31994)
FcγRIIIa (V158) (human) = molecular target: FcγRIIIa (V158) (human)
FcγRIIIa (F158) (human) = FcγRIIIa (F158) (human) (UniProt P08637)
FcγRIIa (H131) (human) = FcγRIIa (H131) (human) (UniProt P12318)
FcγRIIa (R131) (human) = molecular target: FcγRIIa (R131) (human)
FcγRI (human) = FcγRI (human) (UniProt P12314)
[1] = molecular target: APG777 (human (humanized IgG1))

FcγRIIIa (V158) (human), sequence (P08637 17-208): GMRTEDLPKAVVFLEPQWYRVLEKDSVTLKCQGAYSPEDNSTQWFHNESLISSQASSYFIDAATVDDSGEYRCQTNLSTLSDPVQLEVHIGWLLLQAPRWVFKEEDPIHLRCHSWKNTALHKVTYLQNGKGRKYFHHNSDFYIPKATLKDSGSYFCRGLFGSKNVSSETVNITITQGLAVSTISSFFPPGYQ
UniProt P31994, sequence (P31994 43-217): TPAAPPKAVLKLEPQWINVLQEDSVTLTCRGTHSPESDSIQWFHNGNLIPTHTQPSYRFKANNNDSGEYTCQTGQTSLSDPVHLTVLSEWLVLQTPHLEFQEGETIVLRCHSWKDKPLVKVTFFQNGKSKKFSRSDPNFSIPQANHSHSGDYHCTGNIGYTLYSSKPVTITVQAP
FcγRIIa (R131) (human), sequence (P12318 34-217): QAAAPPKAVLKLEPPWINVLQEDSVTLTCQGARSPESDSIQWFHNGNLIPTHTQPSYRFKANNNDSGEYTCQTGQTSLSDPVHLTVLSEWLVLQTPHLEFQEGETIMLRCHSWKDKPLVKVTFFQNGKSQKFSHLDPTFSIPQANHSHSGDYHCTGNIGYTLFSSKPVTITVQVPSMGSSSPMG
UniProt P12314, sequence (P12314 16-292): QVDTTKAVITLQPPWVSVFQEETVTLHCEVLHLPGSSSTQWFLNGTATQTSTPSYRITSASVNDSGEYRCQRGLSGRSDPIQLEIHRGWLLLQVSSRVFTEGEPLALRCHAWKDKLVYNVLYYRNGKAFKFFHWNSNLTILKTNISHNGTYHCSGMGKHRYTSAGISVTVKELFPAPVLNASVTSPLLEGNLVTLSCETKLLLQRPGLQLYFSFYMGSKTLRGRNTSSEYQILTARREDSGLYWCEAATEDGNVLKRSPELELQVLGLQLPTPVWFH

Row | Kd (FcγRIIb (human)) [µM] | Kd (FcγRIIIa (V158) (human)) [µM] | Kd (FcγRIIIa (F158) (human)) [µM] | Kd (FcγRIIa (H131) (human)) [µM] | Kd (FcγRIIa (R131) (human)) [µM] | Kd (FcγRI (human)) [µM] | Kd [1] [µM] | Substance
1 | 15.3 | 0.193 | 0.957 | 2.93 | 5.95 |  |  | rituximab (antibody)
2 |  | 12.1 | 56.2 |  |  | 7.88 |  | APG777 (antibody)
3 |  |  |  |  |  |  | 0.0944 | human neonatal Fc receptor (huFcRn) (from UniProt P55899 24-365)
